Article PMC4958246

Molecular target: polymerized rabbit skeletal muscle actin (F-actin) (rabbit) (UniProt P68135)
Assay: co-sedimentation; proteins incubated with polymerized rabbit skeletal actin (40 µl of a 1-mg/ml stock; 50 mM KCl, 2 mM MgCl2, 1 mM ATP); WD0830 at 40 ng/ml final; centrifuged at 14,000 x g 1 h 24°C, then 150,000 x g 1.5 h 24°C; supernatants and pellets on silver-stained SDS-PAGE, densitometry with ImageJ

Wolbachia pipientis wMel protein WD0830 (Wolbachia actin-localizing effector 1) (natural protein)
percent of the protein in the pellet with actin: 24%
